This test deals with T1, Recombinant human p65 protein (r-p65) with DDK tag (OriGene catalog number TP320780) (human, UniProt Q04206 1-551).
T1 construct: mature; also called r-p65-DDK; human r-p65; not shown: DDK tag
Put plainly: plate-bound PGA probed with r-p65-DDK, method of Friguet, Scatchard analysis.

The values below come from patent US20190054137A1 (INDIANA UNIVERSITY RESEARCH AND TECHNOLOGY, published 2019).

T1 sequence (Q04206 whole entry): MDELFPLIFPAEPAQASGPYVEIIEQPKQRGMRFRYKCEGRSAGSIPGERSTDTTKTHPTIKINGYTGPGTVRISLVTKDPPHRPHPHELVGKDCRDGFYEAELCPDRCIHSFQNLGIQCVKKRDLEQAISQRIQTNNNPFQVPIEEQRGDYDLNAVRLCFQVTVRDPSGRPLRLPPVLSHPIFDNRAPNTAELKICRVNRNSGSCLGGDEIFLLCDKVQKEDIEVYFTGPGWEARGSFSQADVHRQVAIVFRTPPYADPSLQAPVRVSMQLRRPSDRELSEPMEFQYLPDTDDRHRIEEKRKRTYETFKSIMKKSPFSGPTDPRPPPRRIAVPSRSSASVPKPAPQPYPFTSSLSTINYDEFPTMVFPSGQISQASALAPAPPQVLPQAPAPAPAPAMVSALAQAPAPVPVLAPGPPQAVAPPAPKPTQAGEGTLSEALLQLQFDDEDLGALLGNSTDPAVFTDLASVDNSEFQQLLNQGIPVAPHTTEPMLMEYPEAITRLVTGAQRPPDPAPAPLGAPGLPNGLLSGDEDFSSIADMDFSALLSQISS

What is called Kd is the equilibrium constant for the complex coming apart. In the case of Ac-EPAPYQPEG-NH2 (also called Analog 14 (GA-3)) [PGA-3], the dissociation constant Kd turned out to be 3.27 µM.
As for Ac-EPAPLAPYG-NH2 (also called Analog 3 (GA-2)) [PGA-2], the Kd is 2.29 µM.
Ac-EPAPEQPDG-NH2 (also called Analog 8 (GA-5)) [PGA-5]: the equilibrium dissociation constant (Kd) was 3.4 µM.
With Ac-APKPYQPRG-NH2 (also called Analog 20 (GA-1)) [PGA-1], the dissociation constant Kd came to 4.28 µM.
On to Ac-EPAPESPQV-NH2 (also called Analog 7 (GA-4)) [PGA-4], for which the equilibrium dissociation constant (Kd) was determined as 3.28 µM.
